Consider eight molecules from US20240109971A1 (MONASH UNIVERSITY, published 2024).

The target of assay [1] is T1, Peptide 1 (amino acid position 1-28 of the human CCR6) (human, biotinylated).
T1 construct: also called first 28 AA
T1 peptide: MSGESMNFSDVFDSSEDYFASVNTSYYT
Nature of the assay: ELISA, biotinylated peptide on a streptavidin-coated plate. How it is done: (§1) Two overlapping biotinylated peptides spanning the entire N-terminal region of human CCR6 were then synthesized and used in more defined anti-CCR6 mAb epitope mapping studies. Peptide 1 ([…], SEQ ID NO: 2) corresponds to amino acid position 1-28 of the human CCR6 and Peptide 2 ([…], SEQ ID NO: 101) corresponds to amino acid position 18-46 of the human CCR6. Briefly, multiwell plates were coated with streptavidin and washed before the biotinylated peptides were added to separate wells and incubated to facilitate binding of the peptides to the plate. Different anti-human CCR6 antibodies were then tested by adding the respective antibodies to the wells of the plate and incubating the plate. An isotype control and buffer only were included as negative controls. Following washing, appropriate conjugated antibodies were added and the plates were incubated. The plates were washed again and binding of the antibodies to the immobilised peptides was visualised (FIGS. 8 and 9).

The target of assay [2] is T2, human CCR6 (human, UniProt P51684 1-374).
T2 construct: also called hCCR6; CD196
T2 sequence: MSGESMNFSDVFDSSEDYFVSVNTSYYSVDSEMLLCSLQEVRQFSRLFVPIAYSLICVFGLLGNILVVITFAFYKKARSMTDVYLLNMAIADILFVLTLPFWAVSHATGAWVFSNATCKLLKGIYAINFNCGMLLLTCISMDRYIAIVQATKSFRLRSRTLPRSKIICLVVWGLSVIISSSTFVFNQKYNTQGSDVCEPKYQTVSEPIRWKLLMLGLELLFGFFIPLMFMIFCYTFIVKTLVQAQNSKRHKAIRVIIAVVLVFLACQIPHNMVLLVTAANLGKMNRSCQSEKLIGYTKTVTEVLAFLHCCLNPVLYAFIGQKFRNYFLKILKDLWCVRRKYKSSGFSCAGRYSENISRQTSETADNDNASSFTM
Nature of the assay: flow cytometry, hybridoma culture supernatant on L1.2/hCCR6 transfectants. Background: A flow cytometer gives signals particle by particle.

The target in assay [3] is T3, hCXCR1 (human, UniProt P25024 1-350).
T3 construct: whole, on cells; also called hCXCRI; human CXCR1 transfected L1.2 cells
T3 sequence (looked up): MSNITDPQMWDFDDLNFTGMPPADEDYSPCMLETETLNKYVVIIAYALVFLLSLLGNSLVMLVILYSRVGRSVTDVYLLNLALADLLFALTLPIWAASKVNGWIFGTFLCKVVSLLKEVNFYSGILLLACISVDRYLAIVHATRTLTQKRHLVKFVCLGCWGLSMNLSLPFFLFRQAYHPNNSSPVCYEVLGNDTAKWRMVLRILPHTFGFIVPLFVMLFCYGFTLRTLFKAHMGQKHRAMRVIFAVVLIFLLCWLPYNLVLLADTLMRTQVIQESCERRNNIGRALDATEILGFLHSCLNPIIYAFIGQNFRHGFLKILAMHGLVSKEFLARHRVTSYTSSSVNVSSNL
Nature of the assay: flow cytometry, hybridoma culture supernatant on L1.2/hCXCR1 transfectants.

Assay [4] concerns the target T4, hCXCR2 (human, UniProt P25025 1-360).
T4 construct: whole, on cells; also called human CXCR2 transfected L1.2 cells
T4 sequence (looked up): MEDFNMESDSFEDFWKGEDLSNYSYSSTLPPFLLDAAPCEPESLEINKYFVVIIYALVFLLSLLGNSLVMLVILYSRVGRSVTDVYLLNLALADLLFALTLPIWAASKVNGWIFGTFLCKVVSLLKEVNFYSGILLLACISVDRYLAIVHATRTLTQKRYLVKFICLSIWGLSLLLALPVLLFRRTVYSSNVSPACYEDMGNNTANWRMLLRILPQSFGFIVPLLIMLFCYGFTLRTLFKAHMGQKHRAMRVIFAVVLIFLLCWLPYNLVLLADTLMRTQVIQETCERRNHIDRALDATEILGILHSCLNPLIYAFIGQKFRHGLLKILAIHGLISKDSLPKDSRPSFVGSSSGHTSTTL
Nature of the assay: flow cytometry, hybridoma culture supernatant on L1.2/hCXCR2 transfectants.

For assay [5], the target named is T5, hCXCR3 (human, UniProt P49682 1-368).
T5 construct: whole, on cells; also called human CXCR3 transfected L1.2 cells
T5 sequence (looked up): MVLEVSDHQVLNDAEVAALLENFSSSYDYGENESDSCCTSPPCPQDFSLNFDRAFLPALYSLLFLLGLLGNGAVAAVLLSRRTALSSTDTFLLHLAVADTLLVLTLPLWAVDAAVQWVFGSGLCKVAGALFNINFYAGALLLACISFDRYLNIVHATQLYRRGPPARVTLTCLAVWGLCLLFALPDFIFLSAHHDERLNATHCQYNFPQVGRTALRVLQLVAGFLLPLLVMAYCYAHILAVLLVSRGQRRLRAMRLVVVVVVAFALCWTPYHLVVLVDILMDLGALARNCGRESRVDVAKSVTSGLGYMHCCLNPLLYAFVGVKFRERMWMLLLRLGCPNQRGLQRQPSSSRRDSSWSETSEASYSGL
Briefly: flow cytometry, hybridoma culture supernatant on L1.2/hCXCR3 transfectants.

In assay [6] the target is T3, hCXCR1. Briefly: flow cytometry, hybridoma culture supernatant on L1.2/hCXCR1 transfectants. The method, then: (§2) Monoclonal antibodies reactive with CCR6 were identified using human CCR6 transfected L1.2 cells, and untransfected L1.2 cells, or L1.2 cells transfected with unrelated or closely receptors such as hCXCRI, hCXCR2 or hCXCR3 using immunofluorescent staining and analysis using a FACSCalibur (BD Biosciences). Monoclonal antibody staining of cells was performed using standard procedures as described previously (Lee et al., 2006, Nat. Biotech. 24:1279-1284).
(§3) L1.2 transfectants expressing high levels of hCCR6 were used to immunize mice, and approximately 40 monoclonal antibodies were initially identified via flow cytometry that reacted with L1.2 cells transfected with hCCR6, of which approximately 10 reacted specifically with L1.2/hCCR6 transfectants but not with untransfected L1.2 cells or with L1.2 cells transfected with the closely related receptors hCXCRI, hCXCR2 or hCXCR3 (FIG. 3).
The source holds these as a separate data set.

Assay [7] concerns the target T4, hCXCR2. Nature of the assay: flow cytometry, hybridoma culture supernatant on L1.2/hCXCR2 transfectants. The method, then: as §2, §3
The source holds these as a separate data set.

Assay [8] has as its target T5, hCXCR3. Nature of the assay: flow cytometry, hybridoma culture supernatant on L1.2/hCXCR3 transfectants. How it is done:
as §2, §3
The source holds these as a separate data set.

In assay [9] the target is T2, human CCR6. Briefly: competition with 125I-MIP-3α for L1.2/hCCR6 transfectants, partially purified mAb. The method, then: For ligand binding analysis, recombinant human CCL20 (MIP3α) (“ligand”) was obtained from Peprotech (New Jersey, USA). […] Cells were washed once in binding buffer (50 mM Hepes, pH 7.5, 1 mM CaCl, 5 mM MgCb, 0.5% BSA) and resuspended in binding buffer at a concentration of 2.5×10^6 cells/ml. Cold Purified monoclonal antibody or diluted hybridoma culture medium (cold competitor) was added to a 96-well plate followed by an equal volume (40 μl) binding buffer containing 1×10^5 cells. Cells and competitor were preincubated at room temperature for 15 min. Then radiolabeled ligand (final concentration 0.5-2 nM) was added to each well to give a final reaction volume of 120 μl. After a 60-min incubation at room temperature, the cells were washed three times with 1 ml of binding buffer containing 150 mM NaCl. The radioactivity (amount of bound label) in the cell pellets was counted in a TopCount liquid scintillation counter (Packard). Non-specific background binding was calculated by incubating cells […]. Samples were assayed in duplicate.
After incubation and washing the amount of label bound to cells was measured and the percentage inhibition determined by comparison to a control reaction with no added antibody (FIGS. 1 and 5).

In assay [10] the target is T6, Peptide 2 (amino acid position 18-46 of the human CCR6) (human, biotinylated).
T6 construct: also called AA 18 to 46
T6 peptide: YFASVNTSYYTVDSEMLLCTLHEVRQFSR
Nature of the assay: ELISA, biotinylated peptide on a streptavidin-coated plate. How it is done:
as §1
In general terms: ELISA stands for enzyme-linked immunosorbent assay.

Changes are numbered by the printed parent chain. Read-outs that look alike come from different tables or passages of the source.

B1: AB3 (antibody, V domains shown)
VH: EVNLVESGGGLVQPGGSLKLSCAASGFTFSDYYLYWVRQTPEKRLEWVTYITNGGGRTYYSDTVRGRFTISRDNAKNTLYLQMSRLKSEDTAMYYCASPPLGGAWFGYWGQGTLVTVS
VL: DVLMTQTPLSLPVSLGDQASISCRSSQSIVHSNGNTYLEWYLQKPGQSPKLLIYKVSKRFSGVPDRFSGSGSGTDFTLKISRVEAEDLGVYYCFQGSHVPLTFGAGTKLELKR
notes: Mouse hybridoma antibody, isotype IgG1; also called AB3-N21
On to B1, for which the binding result in [1] is given as “binds”; in [2], “binds”; in assay [3], “no binding (tested: not given (culture supernatant))”; in assay [4], “no binding (tested: not given (culture supernatant))”; in assay [5], “no binding (tested: not given (culture supernatant))”.

B2: AB1 (antibody, V domains shown)
VH: B1 VH with L34M, G55D, A97T
VL: B1 VL
notes: Mouse hybridoma antibody, isotype IgG1; also called AB1-O17
As for B2, the binding result in assay [1] is “binds”; in [6], “no binding (tested: not given (culture supernatant))”; in assay [7], “no binding (tested: not given (culture supernatant))”; in assay [8] it was “no binding (tested: not given (culture supernatant))”; in [9] it was “binds”.

B3: AB11 (antibody, V domains shown)
VH: B1 VH with K19I, A23E, T28S, L34M, T63A, V64I, K76R, A97T
VL: B1 VL with L3S, I29L
notes: Mouse hybridoma antibody, isotype IgG1; also called AB11-M9
Turning to B3, the binding result in [1] and in assay [9] was “binds” each time.

B4: AB2 (antibody, V domains shown)
VH: B1 VH with A23E, T28S, L34M, V64I, K76R, A97T
VL: B1 VL with L3S, I29L
notes: Mouse hybridoma antibody, isotype IgG1; also called AB2-O17
Take B4: the binding result in assay [1] and in assay [9] was “binds” throughout.

B5: AB5 (antibody, V domains shown)
VH: B1 VH with A23E, L34M, G55A, G107A
VL: B1 VL with L3S, I29L
notes: Mouse hybridoma antibody, isotype IgG1; also called AB5-M19
Consider B5, for which, in [9], the binding result is given as “binds”.

B6: mouse AB6 mAb (antibody, V domains shown)
VH: B1 VH with N3K, T28P, T49A, G55V, T63S, R65K, A92S, A97T, G107A
VL: B1 VL
notes: Mouse hybridoma antibody, isotype IgG2b; also called mAB6; AB6-K5
As for B6, the binding result was “binds” in [1], “no binding (tested: not given (culture supernatant))” in [3], “no binding (tested: not given (culture supernatant))” in assay [4] and “no binding (tested: not given (culture supernatant))” in [5]. The “IC50 (read off the curve)” value in [9] was around 7 nM.

B7: AB4 (antibody, V domains shown)
VH: B1 VH with L34M
VL: B1 VL with I29L, E84G
notes: Mouse hybridoma antibody, isotype IgG2b; also called AB4-K15
Turning to B7, the binding result in assay [2] is reported as “binds”; in assay [3], “no binding (tested: not given (culture supernatant))”; in assay [4] it was “no binding (tested: not given (culture supernatant))”; in assay [5], “no binding (tested: not given (culture supernatant))”.

B8: AB7 (antibody, V domains shown)
VH: QDQLQQSGVALARPGASVKLSCKASEYTFKSFGLGWVKQRPGQGLEWIGEIYPRSGNTYYNEKVKGKVRLTADKSSNSVYMEFRSLTSEDSAVYFCARSPYDGYFDYWGQGTTLTVS
VL: DVVMTHSPLSLPVSLGDQASISCRSSQSLLHINGNTYLHWYLQKPGQSPKLLIYRVSNRLSGVPDRFSGSGSGTDFTLKISRVEAEDLGVYFCSQSTHVPRTFGGGTKLEIKR
notes: Mouse hybridoma antibody; also called clone AB7
B8: the binding result in assay [1] and in [10] was “binds” throughout.
